The values that follow come from publication doi:10.1101/2024.01.09.574928.

The target in data set [1] is T1, SCAF4-CID (human, UniProt O95104 1-139).
T1 sequence: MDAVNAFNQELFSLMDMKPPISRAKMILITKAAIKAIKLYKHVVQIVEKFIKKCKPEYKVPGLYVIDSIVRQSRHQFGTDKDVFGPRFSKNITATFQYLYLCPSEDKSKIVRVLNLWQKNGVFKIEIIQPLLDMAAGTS
The experiment in a line: SPR.

The target of data set [2] is T2, SCAF8-CID (human, UniProt Q9UPN6 1-139).
T2 sequence: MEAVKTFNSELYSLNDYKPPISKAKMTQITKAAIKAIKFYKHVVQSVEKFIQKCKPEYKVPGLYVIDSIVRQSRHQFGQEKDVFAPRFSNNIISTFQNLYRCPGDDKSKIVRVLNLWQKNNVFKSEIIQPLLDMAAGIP
In words: SPR.

The target of data set [3] is T2, SCAF8-CID. In words: competition FP.
For data set [4], the target named is T1, SCAF4-CID. In words: competition FP.
Data set [5] has as its target T2, SCAF8-CID. In words: SPR. The source holds these as a separate data set.
Data set [6] has as its target T3, WDR5 (UniProt P61964 22-334). The experiment in a line: SPR.
The next data set addresses WDR5 L240K (UniProt P61964 22-334, L240K). The experiment in a line: fluorescence polarization.
The target of data set [7] is T3, WDR5. The experiment in a line: competition FP.
For data set [8], the target named is T3, WDR5. The experiment in a line: fluorescence polarization.
Data set [9] deals with T2, SCAF8-CID. The experiment in a line: competition FP. This is another data set of the same source.
The target of data set [10] is T1, SCAF4-CID. The experiment in a line: competition FP. The source holds these as a separate data set.
Another data set has as its target T4, SCAF4-CID R71A (human, UniProt O95104 1-139, R71A).
T4 sequence: T1 sequence with R71A
In words: fluorescence polarization.

Data set [11] addresses T1, SCAF4-CID. The experiment in a line: fluorescence polarization.
In the next data set the target is T5, SCAF4-CID R21A (human, UniProt O95104 1-139, R23A).
T5 sequence: T1 sequence with R23A
The experiment in a line: fluorescence polarization.

In the next data set the target is T6, SCAF4-CID R112A (human, UniProt O95104 1-139, R112A).
T6 sequence: T1 sequence with R112A
In words: fluorescence polarization.

Numbering of substitutions follows the chain as printed. Where two headings read alike, the source gives them in different places.

With GGGGTGGGGAG (ssDNA) [SRiApt-1 (SCAF4_F3_11nt)], the Kd with SCAF4-CID [1] is 0.0584 ± 0.0058 µM; with SCAF8-CID [2] it was 0.0563 ± 0.00742 µM. Besides, the concentration for half-maximal inhibition (IC50) in the data set with SCAF8-CID [3] was determined as 1.5 ± 0.69 µM; with SCAF4-CID [4] it was 0.832 ± 0.303 µM.

For TTAAAGGGGTGGGGAGTCAT (ssDNA) [SRiApt-3], the figures for the Kd with SCAF8-CID [5] and with SCAF4-CID [1] were 0.0699 ± 0.014 µM and 0.0227 ± 0.001 µM, respectively. The IC50 in the data set with SCAF8-CID [3] is 0.291 ± 0.0197 µM; in the data set with SCAF4-CID [4] it was 0.285 ± 0.0266 µM.

As to GGGGGCTGGACCCCTCAACT (structured_DNA) [WMiApt-1], the Kd was found to be 0.138 ± 0.0867 µM with WDR5 [6] and 0.797 ± 0.0952 µM in the data set with WDR5 [8]. Moreover, in the data set with WDR5 L240K, the binding result is “binds”. This molecule had an IC50 with WDR5 [7] of 0.431 ± 0.134 µM.

Molecule GGACCGGACC (ssDNA) [bivalent WDR5 lead] registered a concentration for half-maximal inhibition (IC50) in the data set with WDR5 [7] of 8.5 ± 4.25 µM.

Consider CAGGTGGGTTC (ssDNA) [SRiApt-2 (F7_11nt_B)], for which the figures for the Kd with SCAF8-CID [5] and with SCAF4-CID [1] were 0.0905 ± 0.0258 µM and 0.0738 ± 0.0307 µM, respectively. Further, the IC50 in the data set with SCAF8-CID [3] amounted to 2.69 ± 1.43 µM; with SCAF4-CID [4], 0.4 ± 0.143 µM.

The molecule GGGTGGGA (ssDNA) [F1_8nt] gave a Kd in the data set with SCAF4-CID [1] of 0.0886 ± 0.0151 µM. For the same molecule, in the data set with SCAF4-CID [4], the IC50 turned out to be 0.554 ± 0.106 µM.

AGGTGGGT (ssDNA) [B2_8nt] came in with a Kd in the data set with SCAF4-CID [1] of 0.297 ± 0.0481 µM. The IC50 with SCAF4-CID [4] worked out at 1.28 ± 0.742 µM.

Regarding GTGGG (ssDNA) [SCAF4_LS (D2_5nt)], the Kd with SCAF8-CID [5] was 0.0764 ± 0.00733 µM; in the data set with SCAF4-CID [1], 0.14 ± 0.0401 µM; with SCAF4-CID R71A, 0.786 ± 0.491 µM; in the data set with SCAF4-CID [11], 0.189 ± 0.0401 µM; in the data set with SCAF4-CID R21A it was 0.416 ± 0.0395 µM; in the data set with SCAF4-CID R112A, 0.672 ± 0.171 µM. Also, the half-maximal inhibitory concentration (IC50) in the data set with SCAF8-CID [9] was 1.96 ± 0.24 µM; with SCAF4-CID [10], 2.75 ± 0.682 µM.

As to TGGTGGGA (ssDNA) [D1_8nt], the IC50 in the data set with SCAF4-CID [4] stood at 1.27 ± 0.864 µM.
